Experiments:
[1] = target: cRAD-TPX2_((7–43)) display protein (Pyrococcus furiosus | human) (UniProt O74036); experiment: SPR; Biacore T100, CM5, peptides or cRAD display proteins immobilised through their cysteine (240-400 RU), kinase as analyte 2.5 nM-2.5 μM, 25°C, 10 mM HEPES pH 7.4, 500 mM NaCl, 0.05% P20; 1:1 steady-state affinity model; CK2α data analysed at 200 s post-injection
[2] = target: Alexa Fluor 488-labeled cRAD-TPX2_((7–43)) display protein (Pyrococcus furiosus | human) (UniProt O74036); experiment: fluorescence polarisation; fluorescence anisotropy, direct titration of kinase (CK2α 2 nM-2 μM; Aurora A D274N 2 nM-1.5 μM) into labelled peptide or display protein; 10 mM HEPES pH 7.4, 500 mM NaCl, 1 mM DTT, 0.05% P20; room temperature; 1:1 model

Kd [1]: 168 nM
Kd [2]: 98 nM
B1: Aurora A_(D274N) kinase domain (domain or fragment)
chain: ESKKRQWALEDFEIGRPLGKGKFGNVYLAREKQSKFILALKVLFKAQLEKAGVEHQLRREVEIQSHLRHPNILRLYGYFHDATRVYLILEYAPLGTVYRELQKLSKFDEQRTATYITELANALSYCHSKRVIHRDIKPENLLLGSAGELKIANFGWSVHAPSSRRTTLCGTLDYLPPEMIEGRMHDEKVDLWSLGVLCYEFLVGKPPFEANTYQETYKRISRVEFTFPDFVTEGARDLISRLLKHNPSQRPMLREVLEHPWITANSSKPSNCQNKESASKQS
